The target in assay [1] is SnoopCatcher (Streptococcus pneumoniae). Kind of assay: time-course of isopeptide bond formation, SDS-PAGE densitometry, 1:1 ratio.
For assay [2] the target is unchanged. Nature of the assay: time-course of isopeptide bond formation, SDS-PAGE densitometry, excess of SnoopTag-MBP.

For the substance SnoopTag-MBP, in assay [1], the reaction yield was found to be 80%. The substance also displayed a percent of SnoopCatcher consumed in assay [2] of 100%.

These data come from patent publication US20180244730A1.
